B1: YtsJ (Bacillus subtilis subsp. subtilis str. 168) (protein)
chain: MSLREEALHLHKVNQGKLESKSKVEVRNAKDLSLAYSPGVAEPCKDIHEDINKVYDYTMKGNMVAVVTDGTAVLGLGNIGPEAALPVMEGKAVLFKSFAGVDAFPIALNTNDVDKIVETVKLLEPTFGGVNLEDIAAPNCFIIEERLKKETNIPVFHDDQHGTAIVTVAGLVNALKLSGKSMSSIKVVANGAGAAGIAIIKLLHHYGVRDIVMCDSKGAIYEGRPNGMNDVKNEVAKFTNQDRKDGSLKDVIVDADVFIGVSVAGALTKEMVQSMAKDPIIFAMANPNPEIMPEDAREAGASVVGTGRSDFPNQVNNVLAFPGIFRGALDVRATHINEEMKIAAVEAIASLVSEDELSADYVIPAPFDKRVAPAVAKAVAKAAMETGVARITVDPEEVAEKTRKLTIIGE
notes: His6-tagged, overexpressed in E. coli (QIAexpress), Ni-NTA purified, tag kept

Legend:
[1] = target: T1, MaeB (Escherichia coli, UniProt P76558); experiment: flow-injection TOF MS, lactate formation (malolactic activity); format: biochemical; settings: NAD+, malate, pyruvate and 1 mM NADPH; 10 mM potassium phosphate pH 7.4, 2.5 mM MgCl2, 50 mM KCl, 1 mM NaHCO3, room temperature
T1 construct: His-tagged from ASKA His tag collection library, overexpressed in E. coli, Ni-NTA purified, tag kept
T1 sequence (P76558 1-759): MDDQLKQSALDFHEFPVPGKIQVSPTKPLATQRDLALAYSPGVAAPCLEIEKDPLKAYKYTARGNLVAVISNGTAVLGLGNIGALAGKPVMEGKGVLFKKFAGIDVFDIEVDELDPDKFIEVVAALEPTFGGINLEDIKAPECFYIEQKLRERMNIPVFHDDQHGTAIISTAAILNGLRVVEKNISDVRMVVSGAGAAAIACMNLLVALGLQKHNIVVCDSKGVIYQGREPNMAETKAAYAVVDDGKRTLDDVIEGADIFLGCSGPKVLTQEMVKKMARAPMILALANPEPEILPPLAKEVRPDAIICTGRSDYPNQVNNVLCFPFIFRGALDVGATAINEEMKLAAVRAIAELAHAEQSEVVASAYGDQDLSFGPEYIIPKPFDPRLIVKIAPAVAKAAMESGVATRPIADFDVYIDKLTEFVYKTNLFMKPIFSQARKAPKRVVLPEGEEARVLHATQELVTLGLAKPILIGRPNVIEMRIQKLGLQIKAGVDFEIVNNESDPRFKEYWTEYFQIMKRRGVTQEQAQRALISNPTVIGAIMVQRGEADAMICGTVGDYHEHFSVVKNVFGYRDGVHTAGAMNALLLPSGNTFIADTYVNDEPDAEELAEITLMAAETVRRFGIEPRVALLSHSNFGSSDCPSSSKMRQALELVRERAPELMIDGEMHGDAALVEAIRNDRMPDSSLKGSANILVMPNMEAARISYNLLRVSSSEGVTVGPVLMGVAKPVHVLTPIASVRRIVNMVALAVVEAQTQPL

[2] = substrate: NC(=O)C1=CN([C@@H]2O[C@H](COP(=O)(O)OP(=O)(O)OC[C@H]3O[C@@H](n4cnc5c(N)ncnc54)[C@H](OP(=O)(O)O)[C@@H]3O)[C@@H](O)[C@H]2O)C=CC1; experiment: purified protein; format: biochemical, Bacillus subtilis; settings: reductive carboxylation, 20 mM pyruvate, 50 mM NaHCO3, 5 mM MgCl2, 50 mM KCl, 100 mM Tris-HCl pH 7.8, 37°C, varied: cofactor
[3] = substrate: CC(=O)C(=O)O; experiment: purified protein; format: biochemical, Bacillus subtilis; settings: reductive carboxylation, NADH and NADPH both added at 0.2 mM, 50 mM NaHCO3, 5 mM MgCl2, 50 mM KCl, 100 mM Tris-HCl pH 7.8, 37°C

Molecule	flow-injection TOF MS, lactate formation (malolactic activity) [1]	Km [2]	Km [3]
O=C(O)C[C@H](O)C(=O)O [malate]	we observed lactate production and, thus, malolactic activity by MaeB	–	–
B1	–	0.8 ± 0.5 mM	5.3 ± 1.3 mM
